Measured values taken from patent US20230365662A1.
“And” between values parts separate entries of the source, which are not always exact repeats. Equal values may be shown once.

B1: KB001 mouse Fab VL T24L (Fab, V domains shown)
VH: EVQLKQSGPGLVAPSQSLSITCTVSGFSLSIYSVHWVRQPPGKGLEWLGMIWGGGSSDYNSALKSRLSISKDNSKSQVFLKMNSLQTDDTAMYYCARNGNFYAMDYWGQGTSVTVSS
VL: QIVLTQSPAIMSASLGERVTMTCLASSSVSSSFLHWYQQKPGSSPQLWIYSTSNLASGVPARFSGSGSGTSYSLTISSMEAEDAATYYCHQYHHSPYIYTFGGGTKLEIK
B2: KB001 mouse Fab VL S27K/S68Y (Fab, V domains shown)
VH: EVQLKQSGPGLVAPSQSLSITCTVSGFSLSIYSVHWVRQPPGKGLEWLGMIWGGGSSDYNSALKSRLSISKDNSKSQVFLKMNSLQTDDTAMYYCARNGNFYAMDYWGQGTSVTVSS
VL: QIVLTQSPAIMSASLGERVTMTCTASKSVSSSFLHWYQQKPGSSPQLWIYSTSNLASGVPARFSGSGYGTSYSLTISSMEAEDAATYYCHQYHHSPYIYTFGGGTKLEIK
B3: KB001 mouse Fab VL S26P (Fab, V domains shown)
VH: EVQLKQSGPGLVAPSQSLSITCTVSGFSLSIYSVHWVRQPPGKGLEWLGMIWGGGSSDYNSALKSRLSISKDNSKSQVFLKMNSLQTDDTAMYYCARNGNFYAMDYWGQGTSVTVSS
VL: QIVLTQSPAIMSASLGERVTMTCTAPSSVSSSFLHWYQQKPGSSPQLWIYSTSNLASGVPARFSGSGSGTSYSLTISSMEAEDAATYYCHQYHHSPYIYTFGGGTKLEIK
B4: KB001 mouse Fab VL A25G (Fab, V domains shown)
VH: EVQLKQSGPGLVAPSQSLSITCTVSGFSLSIYSVHWVRQPPGKGLEWLGMIWGGGSSDYNSALKSRLSISKDNSKSQVFLKMNSLQTDDTAMYYCARNGNFYAMDYWGQGTSVTVSS
VL: QIVLTQSPAIMSASLGERVTMTCTGSSSVSSSFLHWYQQKPGSSPQLWIYSTSNLASGVPARFSGSGSGTSYSLTISSMEAEDAATYYCHQYHHSPYIYTFGGGTKLEIK
B5: KB001 mouse Fab VL T24A (Fab, V domains shown)
VH: EVQLKQSGPGLVAPSQSLSITCTVSGFSLSIYSVHWVRQPPGKGLEWLGMIWGGGSSDYNSALKSRLSISKDNSKSQVFLKMNSLQTDDTAMYYCARNGNFYAMDYWGQGTSVTVSS
VL: QIVLTQSPAIMSASLGERVTMTCAASSSVSSSFLHWYQQKPGSSPQLWIYSTSNLASGVPARFSGSGSGTSYSLTISSMEAEDAATYYCHQYHHSPYIYTFGGGTKLEIK
B6: KB001 mouse Fab VL S26G (Fab, V domains shown)
VH: EVQLKQSGPGLVAPSQSLSITCTVSGFSLSIYSVHWVRQPPGKGLEWLGMIWGGGSSDYNSALKSRLSISKDNSKSQVFLKMNSLQTDDTAMYYCARNGNFYAMDYWGQGTSVTVSS
VL: QIVLTQSPAIMSASLGERVTMTCTAGSSVSSSFLHWYQQKPGSSPQLWIYSTSNLASGVPARFSGSGSGTSYSLTISSMEAEDAATYYCHQYHHSPYIYTFGGGTKLEIK
B7: KB001 mouse Fab VL T24N (Fab, V domains shown)
VH: EVQLKQSGPGLVAPSQSLSITCTVSGFSLSIYSVHWVRQPPGKGLEWLGMIWGGGSSDYNSALKSRLSISKDNSKSQVFLKMNSLQTDDTAMYYCARNGNFYAMDYWGQGTSVTVSS
VL: QIVLTQSPAIMSASLGERVTMTCNASSSVSSSFLHWYQQKPGSSPQLWIYSTSNLASGVPARFSGSGSGTSYSLTISSMEAEDAATYYCHQYHHSPYIYTFGGGTKLEIK
B8: KB001 mouse Fab VL T24Q (Fab, V domains shown)
VH: EVQLKQSGPGLVAPSQSLSITCTVSGFSLSIYSVHWVRQPPGKGLEWLGMIWGGGSSDYNSALKSRLSISKDNSKSQVFLKMNSLQTDDTAMYYCARNGNFYAMDYWGQGTSVTVSS
VL: QIVLTQSPAIMSASLGERVTMTCQASSSVSSSFLHWYQQKPGSSPQLWIYSTSNLASGVPARFSGSGSGTSYSLTISSMEAEDAATYYCHQYHHSPYIYTFGGGTKLEIK
B9: KB001 mouse Fab VL T24N/G67D (Fab, V domains shown)
VH: EVQLKQSGPGLVAPSQSLSITCTVSGFSLSIYSVHWVRQPPGKGLEWLGMIWGGGSSDYNSALKSRLSISKDNSKSQVFLKMNSLQTDDTAMYYCARNGNFYAMDYWGQGTSVTVSS
VL: QIVLTQSPAIMSASLGERVTMTCNASSSVSSSFLHWYQQKPGSSPQLWIYSTSNLASGVPARFSGSDSGTSYSLTISSMEAEDAATYYCHQYHHSPYIYTFGGGTKLEIK
B10: KB001 mouse Fab VL S27W (Fab, V domains shown)
VH: EVQLKQSGPGLVAPSQSLSITCTVSGFSLSIYSVHWVRQPPGKGLEWLGMIWGGGSSDYNSALKSRLSISKDNSKSQVFLKMNSLQTDDTAMYYCARNGNFYAMDYWGQGTSVTVSS
VL: QIVLTQSPAIMSASLGERVTMTCTASWSVSSSFLHWYQQKPGSSPQLWIYSTSNLASGVPARFSGSGSGTSYSLTISSMEAEDAATYYCHQYHHSPYIYTFGGGTKLEIK
B11: KB001 mouse Fab VL S27H (Fab, V domains shown)
VH: EVQLKQSGPGLVAPSQSLSITCTVSGFSLSIYSVHWVRQPPGKGLEWLGMIWGGGSSDYNSALKSRLSISKDNSKSQVFLKMNSLQTDDTAMYYCARNGNFYAMDYWGQGTSVTVSS
VL: QIVLTQSPAIMSASLGERVTMTCTASHSVSSSFLHWYQQKPGSSPQLWIYSTSNLASGVPARFSGSGSGTSYSLTISSMEAEDAATYYCHQYHHSPYIYTFGGGTKLEIK
B12: KB001 mouse Fab VL S27L (Fab, V domains shown)
VH: EVQLKQSGPGLVAPSQSLSITCTVSGFSLSIYSVHWVRQPPGKGLEWLGMIWGGGSSDYNSALKSRLSISKDNSKSQVFLKMNSLQTDDTAMYYCARNGNFYAMDYWGQGTSVTVSS
VL: QIVLTQSPAIMSASLGERVTMTCTASLSVSSSFLHWYQQKPGSSPQLWIYSTSNLASGVPARFSGSGSGTSYSLTISSMEAEDAATYYCHQYHHSPYIYTFGGGTKLEIK
B13: KB001 mouse Fab VL A25E (Fab, V domains shown)
VH: EVQLKQSGPGLVAPSQSLSITCTVSGFSLSIYSVHWVRQPPGKGLEWLGMIWGGGSSDYNSALKSRLSISKDNSKSQVFLKMNSLQTDDTAMYYCARNGNFYAMDYWGQGTSVTVSS
VL: QIVLTQSPAIMSASLGERVTMTCTESSSVSSSFLHWYQQKPGSSPQLWIYSTSNLASGVPARFSGSGSGTSYSLTISSMEAEDAATYYCHQYHHSPYIYTFGGGTKLEIK
B14: KB001 mouse Fab VL S27V (Fab, V domains shown)
VH: EVQLKQSGPGLVAPSQSLSITCTVSGFSLSIYSVHWVRQPPGKGLEWLGMIWGGGSSDYNSALKSRLSISKDNSKSQVFLKMNSLQTDDTAMYYCARNGNFYAMDYWGQGTSVTVSS
VL: QIVLTQSPAIMSASLGERVTMTCTASVSVSSSFLHWYQQKPGSSPQLWIYSTSNLASGVPARFSGSGSGTSYSLTISSMEAEDAATYYCHQYHHSPYIYTFGGGTKLEIK
B15: KB001 mouse Fab VL A25Y (Fab, V domains shown)
VH: EVQLKQSGPGLVAPSQSLSITCTVSGFSLSIYSVHWVRQPPGKGLEWLGMIWGGGSSDYNSALKSRLSISKDNSKSQVFLKMNSLQTDDTAMYYCARNGNFYAMDYWGQGTSVTVSS
VL: QIVLTQSPAIMSASLGERVTMTCTYSSSVSSSFLHWYQQKPGSSPQLWIYSTSNLASGVPARFSGSGSGTSYSLTISSMEAEDAATYYCHQYHHSPYIYTFGGGTKLEIK
B16: KB001 mouse Fab VL S27Y (Fab, V domains shown)
VH: EVQLKQSGPGLVAPSQSLSITCTVSGFSLSIYSVHWVRQPPGKGLEWLGMIWGGGSSDYNSALKSRLSISKDNSKSQVFLKMNSLQTDDTAMYYCARNGNFYAMDYWGQGTSVTVSS
VL: QIVLTQSPAIMSASLGERVTMTCTASYSVSSSFLHWYQQKPGSSPQLWIYSTSNLASGVPARFSGSGSGTSYSLTISSMEAEDAATYYCHQYHHSPYIYTFGGGTKLEIK
B17: KB001 mouse Fab VL A25V (Fab, V domains shown)
VH: EVQLKQSGPGLVAPSQSLSITCTVSGFSLSIYSVHWVRQPPGKGLEWLGMIWGGGSSDYNSALKSRLSISKDNSKSQVFLKMNSLQTDDTAMYYCARNGNFYAMDYWGQGTSVTVSS
VL: QIVLTQSPAIMSASLGERVTMTCTVSSSVSSSFLHWYQQKPGSSPQLWIYSTSNLASGVPARFSGSGSGTSYSLTISSMEAEDAATYYCHQYHHSPYIYTFGGGTKLEIK
B18: KB001 mouse Fab VL T24G (Fab, V domains shown)
VH: EVQLKQSGPGLVAPSQSLSITCTVSGFSLSIYSVHWVRQPPGKGLEWLGMIWGGGSSDYNSALKSRLSISKDNSKSQVFLKMNSLQTDDTAMYYCARNGNFYAMDYWGQGTSVTVSS
VL: QIVLTQSPAIMSASLGERVTMTCGASSSVSSSFLHWYQQKPGSSPQLWIYSTSNLASGVPARFSGSGSGTSYSLTISSMEAEDAATYYCHQYHHSPYIYTFGGGTKLEIK
B19: KB001 mouse Fab VL A25P (Fab, V domains shown)
VH: EVQLKQSGPGLVAPSQSLSITCTVSGFSLSIYSVHWVRQPPGKGLEWLGMIWGGGSSDYNSALKSRLSISKDNSKSQVFLKMNSLQTDDTAMYYCARNGNFYAMDYWGQGTSVTVSS
VL: QIVLTQSPAIMSASLGERVTMTCTPSSSVSSSFLHWYQQKPGSSPQLWIYSTSNLASGVPARFSGSGSGTSYSLTISSMEAEDAATYYCHQYHHSPYIYTFGGGTKLEIK
B20: KB001 mouse Fab VL S26T (Fab, V domains shown)
VH: EVQLKQSGPGLVAPSQSLSITCTVSGFSLSIYSVHWVRQPPGKGLEWLGMIWGGGSSDYNSALKSRLSISKDNSKSQVFLKMNSLQTDDTAMYYCARNGNFYAMDYWGQGTSVTVSS
VL: QIVLTQSPAIMSASLGERVTMTCTATSSVSSSFLHWYQQKPGSSPQLWIYSTSNLASGVPARFSGSGSGTSYSLTISSMEAEDAATYYCHQYHHSPYIYTFGGGTKLEIK
B21: KB001 mouse Fab VL S27N (Fab, V domains shown)
VH: EVQLKQSGPGLVAPSQSLSITCTVSGFSLSIYSVHWVRQPPGKGLEWLGMIWGGGSSDYNSALKSRLSISKDNSKSQVFLKMNSLQTDDTAMYYCARNGNFYAMDYWGQGTSVTVSS
VL: QIVLTQSPAIMSASLGERVTMTCTASNSVSSSFLHWYQQKPGSSPQLWIYSTSNLASGVPARFSGSGSGTSYSLTISSMEAEDAATYYCHQYHHSPYIYTFGGGTKLEIK

Target: HRgpA-6H (Porphyromonas gingivalis) (UniProt P28784)
Chain of UniProt P28784 (P28784 228-991): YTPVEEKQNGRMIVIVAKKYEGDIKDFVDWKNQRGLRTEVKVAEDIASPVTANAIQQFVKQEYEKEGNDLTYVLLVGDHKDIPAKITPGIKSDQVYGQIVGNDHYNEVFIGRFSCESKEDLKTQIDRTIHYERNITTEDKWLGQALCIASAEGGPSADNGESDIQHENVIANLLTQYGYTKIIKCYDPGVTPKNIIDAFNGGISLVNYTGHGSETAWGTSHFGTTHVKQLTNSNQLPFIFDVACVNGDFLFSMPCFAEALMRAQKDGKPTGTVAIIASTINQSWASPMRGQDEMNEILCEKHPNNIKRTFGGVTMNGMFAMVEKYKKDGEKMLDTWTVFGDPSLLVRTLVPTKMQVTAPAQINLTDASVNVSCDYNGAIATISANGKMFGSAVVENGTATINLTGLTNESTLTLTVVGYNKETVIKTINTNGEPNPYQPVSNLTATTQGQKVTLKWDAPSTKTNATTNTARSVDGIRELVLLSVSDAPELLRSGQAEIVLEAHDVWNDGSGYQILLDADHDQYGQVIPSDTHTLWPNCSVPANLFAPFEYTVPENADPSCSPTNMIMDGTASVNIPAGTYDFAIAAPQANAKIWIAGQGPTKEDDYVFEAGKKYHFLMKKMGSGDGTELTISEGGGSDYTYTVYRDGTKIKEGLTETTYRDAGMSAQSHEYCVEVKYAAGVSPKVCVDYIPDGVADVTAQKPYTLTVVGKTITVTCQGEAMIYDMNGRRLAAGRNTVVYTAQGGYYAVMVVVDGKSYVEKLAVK
Experiment: ELISA, FASEBA Fab on coated HRgpA-6H

| Binder | OD450nm | Ratio OD(Variant)/OD(WT) |
| --- | --- | --- |
| B1 | 0.753 and 0.752 and 0.667 | 0.979 and 0.978 and 0.867 |
| B2 | 0.736 | 0.981 |
| B3 | 0.644 and 0.677 | 0.822 and 0.865 |
| B4 | 0.668 and 0.699 and 0.673 | 0.853 and 0.893 and 0.86 |
| B5 | 0.757 | 0.984 |
| B6 | 0.73 | 0.932 |
| B7 | 0.715 and 0.8 | 0.93 and 1.04 |
| B8 | 0.765 | 0.995 |
| B9 | 0.755 | 0.982 |
| B10 | 0.601 | 0.801 |
| B11 | 0.664 and 0.63 and 0.726 | 0.885 and 0.839 and 0.967 |
| B12 | 0.649 | 0.865 |
| B13 | 0.655 | 0.837 |
| B14 | 0.645 and 0.646 | 0.859 and 0.861 |
| B15 | 0.755 and 0.757 | 0.964 and 0.967 |
| B16 | 0.617 | 0.822 |
| B17 | 0.768 | 0.981 |
| B18 | 0.686 and 0.735 | 0.892 and 0.956 |
| B19 | 0.742 and 0.766 and 0.749 | 0.948 and 0.978 and 0.957 |
| B20 | 0.761 | 0.972 |
| B21 | 0.675 and 0.724 and 0.64 | 0.899 and 0.965 and 0.853 |
